Laboratory results taken from publication PMC5484413 (Nature structural & molecular biology, 2016).
Residue numbers refer to the chain shown, from its start. Numbers in names are those of the source.

T1: GST-NPP-14 (C. elegans, UniProt Q17602 1-1390)
T1 sequence (looked up): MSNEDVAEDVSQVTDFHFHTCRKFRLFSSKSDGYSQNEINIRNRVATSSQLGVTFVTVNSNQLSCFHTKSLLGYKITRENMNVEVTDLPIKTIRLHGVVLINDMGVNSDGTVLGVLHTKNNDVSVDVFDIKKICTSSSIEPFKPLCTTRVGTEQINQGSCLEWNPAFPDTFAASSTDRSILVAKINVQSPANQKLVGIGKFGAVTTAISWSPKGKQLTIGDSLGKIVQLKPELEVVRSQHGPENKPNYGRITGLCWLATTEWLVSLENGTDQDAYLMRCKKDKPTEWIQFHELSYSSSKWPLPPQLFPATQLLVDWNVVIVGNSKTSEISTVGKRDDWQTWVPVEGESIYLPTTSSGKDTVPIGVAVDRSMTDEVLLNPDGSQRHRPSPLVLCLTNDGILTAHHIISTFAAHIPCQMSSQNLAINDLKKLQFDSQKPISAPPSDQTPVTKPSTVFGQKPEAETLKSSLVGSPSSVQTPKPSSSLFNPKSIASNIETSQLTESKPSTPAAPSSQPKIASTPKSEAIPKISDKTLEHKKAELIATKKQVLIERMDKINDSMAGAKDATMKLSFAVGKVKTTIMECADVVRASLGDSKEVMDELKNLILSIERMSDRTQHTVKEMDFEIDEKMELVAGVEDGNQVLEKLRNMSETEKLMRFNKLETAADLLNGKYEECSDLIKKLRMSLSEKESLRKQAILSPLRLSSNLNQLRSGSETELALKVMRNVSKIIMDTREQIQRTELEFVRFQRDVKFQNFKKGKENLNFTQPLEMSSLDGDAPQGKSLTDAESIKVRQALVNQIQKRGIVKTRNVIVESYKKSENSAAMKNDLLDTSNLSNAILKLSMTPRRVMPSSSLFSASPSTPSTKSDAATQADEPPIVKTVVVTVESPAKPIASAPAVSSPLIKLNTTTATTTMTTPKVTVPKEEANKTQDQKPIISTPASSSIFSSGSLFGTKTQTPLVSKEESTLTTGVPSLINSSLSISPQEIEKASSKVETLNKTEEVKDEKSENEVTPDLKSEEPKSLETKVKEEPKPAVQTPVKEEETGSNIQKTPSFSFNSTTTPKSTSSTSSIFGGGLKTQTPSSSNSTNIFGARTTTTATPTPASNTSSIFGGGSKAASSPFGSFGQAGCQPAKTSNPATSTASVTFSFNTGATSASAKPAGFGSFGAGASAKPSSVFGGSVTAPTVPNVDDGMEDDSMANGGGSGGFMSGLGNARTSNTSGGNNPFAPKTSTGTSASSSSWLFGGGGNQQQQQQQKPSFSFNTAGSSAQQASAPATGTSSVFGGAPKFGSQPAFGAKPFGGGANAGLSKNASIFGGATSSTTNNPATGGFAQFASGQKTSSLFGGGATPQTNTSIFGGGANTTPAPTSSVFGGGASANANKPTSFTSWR

B1: CED-3(1-220)-His6 (wild-type) (domain or fragment, C. elegans, UniProt P42573 1-220, looked up)
chain: MMRQDRRSLLERNIMMFSSHLKVDEILEVLIAKQVLNSDNGDMINSCGTVREKRREIVKAVQRRGDVAFDAFYDALRSTGHEGLAEVLEPLARSVDSNAVEFECPMSPASHRRSRALSPAGYTSPTRVHRDSVSSVSSFTSYQDIYSRARSRSRSRALHSSDRHNYSSPPVNAFPSQPSSANSSFTGCSSLGYSSSRNRSFSKASGPTQYIFHEEDMNFV
B2: CED-3(1-220)-His6 G65R (domain or fragment, C. elegans, UniProt P42573 1-220, looked up)
chain: B1 chain with G65R
B3: CED-3(1-220)-His6 L27F (domain or fragment, C. elegans, UniProt P42573 1-220, looked up)
chain: B1 chain with L27F
B4: CED-3(1-220)-His6 L30F (domain or fragment, C. elegans, UniProt P42573 1-220, looked up)
chain: B1 chain with L30F

Target: T1, GST-NPP-14
Experiment: pull-down

Binding result, binds:
B1, B2, B3, B4
